Results taken from publication PMC5353671, “A bacterial aromatic aldehyde dehydrogenase critical for the efficient catabolism of syringaldehyde” (Scientific Reports, 2017).

Key:
COc1cc(C=O)cc(OC)c1O = test system: T1, COc1cc(C=O)cc(OC)c1O; test: HPLC, Hanes-Woolf plot; format: biochemical, Sphingobium sp. SYK-6; settings: 500 μM NAD+, pH 7.0 phosphate buffer, 30 °C
T1 construct: calculated Mr 55,173; dimer 120 kDa
Description: (§1) HPLC, Hanes-Woolf plot on DesV (SLG_28320)

COc1cc(C=O)ccc1O = test system: T2, COc1cc(C=O)ccc1O; test: HPLC, Hanes-Woolf plot; format: biochemical, Sphingobium sp. SYK-6; settings: 500 μM NAD+, pH 7.0 phosphate buffer, 30 °C
T2 construct: calculated Mr 55,173; dimer 120 kDa
Description: as §1

[1] = biological target: LigV (vanillin dehydrogenase), His-tag fused (Sphingobium sp. SYK-6); test: SEC; Superdex200 10/300GL, 50 mM KH2PO4-K2HPO4 buffer (pH 7.0) with 150 mM NaCl, 0.5 ml/min; native mass estimated and compared with the monomer size
[2] = biological target: DesV (SLG_28320 gene product), His-tag fused (Sphingobium sp. SYK-6); test: as above

DesV (SLG_28320) (Sphingobium sp. SYK-6), sequence (chain, as listed by the source): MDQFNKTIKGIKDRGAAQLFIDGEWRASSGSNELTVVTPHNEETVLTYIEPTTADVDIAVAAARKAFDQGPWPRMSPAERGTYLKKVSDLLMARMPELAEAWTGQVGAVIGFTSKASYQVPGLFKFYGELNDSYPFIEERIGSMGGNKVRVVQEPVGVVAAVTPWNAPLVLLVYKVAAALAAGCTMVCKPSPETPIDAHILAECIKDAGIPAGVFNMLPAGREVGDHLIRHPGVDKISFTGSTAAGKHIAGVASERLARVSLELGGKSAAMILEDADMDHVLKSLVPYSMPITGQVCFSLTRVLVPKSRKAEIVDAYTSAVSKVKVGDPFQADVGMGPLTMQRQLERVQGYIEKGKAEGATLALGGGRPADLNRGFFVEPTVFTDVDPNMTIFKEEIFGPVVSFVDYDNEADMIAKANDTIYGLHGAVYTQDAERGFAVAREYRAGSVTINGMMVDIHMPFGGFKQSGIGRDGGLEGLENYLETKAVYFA

“DesV (SLG_28320) (Sphingobium sp. SYK-6)” was tested, and the Km (COc1cc(C=O)cc(OC)c1O) was 0.48 ± 0.03 µM, the Vmax (COc1cc(C=O)cc(OC)c1O) was 1.08 µmol/min/mg and the kcat (COc1cc(C=O)cc(OC)c1O) was 0.99 ± 0.01 s⁻¹. It also gave a kcat/Km (COc1cc(C=O)cc(OC)c1O) of 2.1e+06 ± 93000 M⁻¹ s⁻¹, a Km (COc1cc(C=O)ccc1O) of 0.47 ± 0.04 µM and a Vmax (COc1cc(C=O)ccc1O) of 0.85 µmol/min/mg. It also gave a kcat (COc1cc(C=O)ccc1O) of 0.79 ± 0.01 s⁻¹ and a kcat/Km (COc1cc(C=O)ccc1O) of 1.7e+06 ± 140000 M⁻¹ s⁻¹.

“LigV (vanillin dehydrogenase), His-tag fused (enzyme)” showed a stoichiometry N [1] of 4.

“DesV (SLG_28320 gene product), His-tag fused (enzyme)” showed a stoichiometry N [2] of 2.
